# Values of other authors as cited in article PMC11417995.
# Columns and labels:
# ubiquitin (Homo sapiens) [1] = target: ubiquitin (Homo sapiens) (UniProt P0CG47); test: SPR
# ubiquitin (Homo sapiens) [2] = target: ubiquitin (Homo sapiens) (UniProt P0CG47); test: TR-FRET
# ubiquitin (Homo sapiens) [3] = target: ubiquitin (Homo sapiens) (UniProt P0CG47); test: NMR
# Chain of UBE2K UBA (P61086 157-200): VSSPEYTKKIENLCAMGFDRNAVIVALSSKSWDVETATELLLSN
# Chain of CDC34A (P49427 whole entry): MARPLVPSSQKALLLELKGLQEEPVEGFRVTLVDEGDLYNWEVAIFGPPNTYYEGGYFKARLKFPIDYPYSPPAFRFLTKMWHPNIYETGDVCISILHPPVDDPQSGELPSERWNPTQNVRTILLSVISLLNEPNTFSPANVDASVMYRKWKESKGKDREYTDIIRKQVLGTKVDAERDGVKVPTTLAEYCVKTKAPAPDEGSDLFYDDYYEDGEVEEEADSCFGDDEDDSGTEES
# Chain of UBE2K (P61086 2-200): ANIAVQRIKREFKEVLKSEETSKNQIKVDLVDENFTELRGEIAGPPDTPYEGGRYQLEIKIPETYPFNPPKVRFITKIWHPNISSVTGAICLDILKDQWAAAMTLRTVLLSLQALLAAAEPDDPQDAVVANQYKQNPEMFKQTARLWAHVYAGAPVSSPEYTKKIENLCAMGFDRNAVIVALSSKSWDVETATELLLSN
substance,measurement,setting,value
UBE2K UBA (from UniProt P61086),Kd,ubiquitin (Homo sapiens) [1],400 µM
CDC34A (from UniProt P49427),Kd,ubiquitin (Homo sapiens) [2],14 µM
UBE2K (from UniProt P61086),Kd,ubiquitin (Homo sapiens) [3],1250 µM
